Assay results published in the supplement of paper PMC10567573.

B1: ZNF263 (parent)
chain: PEASHLRFRRFRFQEAAGPREALS

Variants of: B1
Test: protein stability index of a GFP-peptide fusion (GPS, HEK-293T) (PSI 1-6); higher = more stable
Conditions: c terminus: a fixed tail appended
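Also: lentivirally expressed fusions sorted by FACS into six bins by GFP to DsRed ratio, PSI derived from sequencing read proportions per bin multiplied by bin number.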

Variant	protein stability index
PEASHLRFRRFRCQEAAGPREALS [F13C]	2.75
PEASHLRFRRFRRQEAAGPREALS [F13R]	3.56
PEASHLRFRRFRLQEAAGPREALS [F13L]	2.65
PEASHLRFRRFRIQEAAGPREALS [F13I]	3.28
PEASHLRFRRFRKQEAAGPREALS [F13K]	4.07
PEASHLRFRRFRTQEAAGPREALS [F13T]	4.15
PEASHLRFRRFRDQEAAGPREALS [F13D]	4.81
PEASHLRFRRFRNQEAAGPREALS [F13N]	3.8
PEASHLRFRRFRMQEAAGPREALS [F13M]	3.59
PEASHLRFRRFRGQEAAGPREALS [F13G]	4.17
PEASHLRFRRFRVQEAAGPREALS [F13V]	3.61
PEASHLRFRRFREQEAAGPREALS [F13E]	3.86
PEASHLRFRRFRQQEAAGPREALS [F13Q]	4.18
PEASHLRFRRFRAQEAAGPREALS [F13A]	3.97
PEASHLRFRRFRSQEAAGPREALS [F13S]	4.01
PEASHLRFRRFRPQEAAGPREALS [F13P]	3.9
PEASHLRMRRFRFQEAAGPREALS [F8M]	2.8
PEASHLRWRRFRFQEAAGPREALS [F8W]	1.94
PEASHLRPRRFRFQEAAGPREALS [F8P]	3.04
PEASHLRARRFRFQEAAGPREALS [F8A]	3.28
PEASHLRERRFRFQEAAGPREALS [F8E]	3.98
PEASHLRTRRFRFQEAAGPREALS [F8T]	3.4
PEASHLRNRRFRFQEAAGPREALS [F8N]	3.46
PEASHLRRRRFRFQEAAGPREALS [F8R]	3.55

Variant	protein stability index
PEASHLRKRRFRFQEAAGPREALS [F8K]	3.29
PEASHLRSRRFRFQEAAGPREALS [F8S]	3.21
PEASHLRHRRFRFQEAAGPREALS [F8H]	3.23
PEASHLRVRRFRFQEAAGPREALS [F8V]	3.06
PEASHLRGRRFRFQEAAGPREALS [F8G]	3.29
PEASHLRDRRFRFQEAAGPREALS [F8D]	3.08
PEASHLRYRRFRFQEAAGPREALS [F8Y]	2.76
PEASHLRLRRFRFQEAAGPREALS [F8L]	2.84
PEASHLRIRRFRFQEAAGPREALS [F8I]	3.43
PEASHLRCRRFRFQEAAGPREALS [F8C]	2.69
PEASHLRFRFFRFQEAAGPREALS [R10F]	1.79
PEASHLRFRMFRFQEAAGPREALS [R10M]	3.12
PEASHLRFRPFRFQEAAGPREALS [R10P]	2.11
PEASHLRFRLFRFQEAAGPREALS [R10L]	2.49
PEASHLRFRDFRFQEAAGPREALS [R10D]	3.29
PEASHLRFRYFRFQEAAGPREALS [R10Y]	1.91
PEASHLRFREFRFQEAAGPREALS [R10E]	2.68
PEASHLRFRAFRFQEAAGPREALS [R10A]	2.18
PEASHLRFRKFRFQEAAGPREALS [R10K]	2.65
PEASHLRFRCFRFQEAAGPREALS [R10C]	2.28
PEASHLRFRVFRFQEAAGPREALS [R10V]	1.26
PEASHLRFRNFRFQEAAGPREALS [R10N]	2.35
PEASHLRFRWFRFQEAAGPREALS [R10W]	3.23
PEASHLRFRHFRFQEAAGPREALS [R10H]	2.27

Variant	protein stability index
PEASHLRFRGFRFQEAAGPREALS [R10G]	2.62
PEASHLRFRIFRFQEAAGPREALS [R10I]	1.86
PEASHLRFRTFRFQEAAGPREALS [R10T]	2.93
PEASHLRFRSFRFQEAAGPREALS [R10S]	2.72
PEASHLRFRQFRFQEAAGPREALS [R10Q]	3.07
PEASHRRFRRFRFQEAAGPREALS [L6R]	3.06
PEASHDRFRRFRFQEAAGPREALS [L6D]	3.62
PEASHGRFRRFRFQEAAGPREALS [L6G]	3.46
PEASHIRFRRFRFQEAAGPREALS [L6I]	2.42
PEASHWRFRRFRFQEAAGPREALS [L6W]	2.37
PEASHKRFRRFRFQEAAGPREALS [L6K]	2.73
PEASHPRFRRFRFQEAAGPREALS [L6P]	3.03
PEASHTRFRRFRFQEAAGPREALS [L6T]	1.98
PEASHCRFRRFRFQEAAGPREALS [L6C]	2.6
PEASHARFRRFRFQEAAGPREALS [L6A]	3.3
PEASHHRFRRFRFQEAAGPREALS [L6H]	3.46
PEASHERFRRFRFQEAAGPREALS [L6E]	3.61
PEASHSRFRRFRFQEAAGPREALS [L6S]	3.23
PEASHNRFRRFRFQEAAGPREALS [L6N]	3.03
PEASHQRFRRFRFQEAAGPREALS [L6Q]	3.63
PEASHVRFRRFRFQEAAGPREALS [L6V]	3.36
PEASHMRFRRFRFQEAAGPREALS [L6M]	2.54
PEASHFRFRRFRFQEAAGPREALS [L6F]	2.75
PEASHYRFRRFRFQEAAGPREALS [L6Y]	1.66

Variant	protein stability index
PEASHLMFRRFRFQEAAGPREALS [R7M]	2.84
PEASHLHFRRFRFQEAAGPREALS [R7H]	2.93
PEASHLWFRRFRFQEAAGPREALS [R7W]	3.63
PEASHLYFRRFRFQEAAGPREALS [R7Y]	2.36
PEASHLFFRRFRFQEAAGPREALS [R7F]	2.28
PEASHLAFRRFRFQEAAGPREALS [R7A]	3.14
PEASHLKFRRFRFQEAAGPREALS [R7K]	2.92
PEASHLDFRRFRFQEAAGPREALS [R7D]	2.78
PEASHLCFRRFRFQEAAGPREALS [R7C]	2.5
PEASHLGFRRFRFQEAAGPREALS [R7G]	3.45
PEASHLLFRRFRFQEAAGPREALS [R7L]	2.08
PEASHLVFRRFRFQEAAGPREALS [R7V]	2.65
PEASHLIFRRFRFQEAAGPREALS [R7I]	1.8
PEASHLTFRRFRFQEAAGPREALS [R7T]	3.66
PEASHLSFRRFRFQEAAGPREALS [R7S]	2.68
PEASHLQFRRFRFQEAAGPREALS [R7Q]	2.75
PEASHLPFRRFRFQEAAGPREALS [R7P]	2.35
PEASHLNFRRFRFQEAAGPREALS [R7N]	3.08
PEASHLEFRRFRFQEAAGPREALS [R7E]	3.26
PEASHLRFTRFRFQEAAGPREALS [R9T]	3.32
PEASHLRFWRFRFQEAAGPREALS [R9W]	1.62
PEASHLRFNRFRFQEAAGPREALS [R9N]	3.08
